Source: paper PMC7954794, “Protein context shapes the specificity of SH3 domain-mediated interactions in vivo” (Nature Communications, 2021)

System: PPIs identified as affected by the SH3 domain deletions
Test: Liquid DHFR-PCA low-throughput validation of PPIs affected by SH3 deletion (Fig. S1D-E)
Format: cell-based, Saccharomyces cerevisiae
Details: label = prey, liquid DHFR-PCA, prey _1 = lost, _2 = gained in screen
How it was run: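 Growth at 30 °C was tracked by OD each 15 min over 72 h in agar-free PCA selection medium, starting at 0.1 OD. Cells were diploids selected after mating, first cultured 48 h with NAT and HPH in synthetic complete MSG medium, pH 6.0.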

Molecule	Ratio (Deletedscore / WTscore) (bait LSB3)	Ratio (Deletedscore / WTscore) (bait MYO3)	further results
YNL106C_1 (protein, UniProt P50942 1-1183, looked up) Polyphosphatidylinositol …: MKILLSKQQTRKIAIVSETHGLVFRPINSKNSRRSTCAVELVPKAELNGNGFRRLSNHEIYGFIGLIEIEGLMFIATITGKSKVAQPIPNKTVNKIYAVDFFCLNNSKWDFMDIDSSGYPIVTNDGDFAISSPPSISTHSSRSSLRSSSSRSLNAQEQAPKHPCHELRKLLSNGSFYYSTDFDLTCTLQKRGFTEHSLSFDDFDREFMWNSFLMDEIITYRDRLDVTAKELLDQRGFLTTVIRGFAETIFSYINRLKVGLTIISRQSWKRAGTRFNARGIDDDGHVANFVETEMIMYSSQYCYAFTQIRGSLPIFWEQDTSLISPKIQITRSVEATQPTFDEHFIRLFKKYGPVHIINLLSTKSSEIQLSRRYKEQLKNSEKMKIGRDVFLTSFDFHRETSQDGFAAASRIIPKIRNTILDAGYFSYDVKEGRLISEQDGVFRTNCLDCLDRTNLIQQTISLAVFKLFLEDFRLVKPSSFIDDNEFVQKVNALWADNGDQISQIYTGTNALKSSYSRKGKMSFSGALSDATKSVSRMYINNFVDKGKQQNIDTLLGKLPHQQVVELYDPICEYVNERLLESEEKFTTHSNINLFVGTFNVNGNSRRADLSKWLFPIGDKFKPDVVVLGLQEVIELTAGSILNADYTKSSFWETMVTDCLNQYEEKYLLLRVEQMSSLLILFFARSDRAYNIKEVGGSTKKTGFGGITGNKGAVAIRFDYGATSFCFVNTHLSAGASNIDERRNDYNNIYRNITFPRSKTIPHHDSLFWLGDLNYRITLTNDEVRRELRAQKDGYIDRLLQYDQLTQEINEGVVFQGFKEPTLQFRPTYKYDYGTDNYDTSEKARTPSWTDRIIYKGENLHPLAYSDAPLKISDHKPVYAAYRANVKFVDEKEKLNLVEKLYAEYKNTHPEALTTGPDELSHARMEKQKESIPLDATVQSAGIKLIDLDDTSSCVSPLLSGPSPQPSVVGPGGLSNVSPDKSKLNVLPPPPPTSRHNKEPSSKLLSPTKEISIVSVSPRKGESNLPALERHSTPKPLPPVPALSLSKPVSLQKSSSELQHAKETIDNGKIVPRPCPPIRRKSSTAPDEISTSTKNSGVSTTEDPEPAKASTKPEKPPVVKKPHYLSVAANKLNTSQEHSIKVSPSNSKSEEELPCKKKSKPKVPAKNPELEKLSVHPLKPCDPN	0.7587	–	–
YNL287W_2 (protein, UniProt P32074 1-935, looked up) Coatomer subunit gamma: MSAHTYKKFENSTSGDLPDKMTIYQDCMNTFNESPVNSKRCRLLISRLLRLLAQGETFPQNEATALFFSISKLFQHQNDPLRQAVYLAIKELSGISEDVLMATSSIMKDVQNGSDLIKPDAIRSLTYVLDESTAFSAERLLKSAVVSRHPSISSAALCTSYHLLPISEVTIRRFTNETQEAVLDLKQFPNQHGNSEYYPNSTYISQYHALGLLYQLKKTDKMALLKLVRHFSENNSMKNQLAKVELVKIVNDLIYRDPQLFSQFRPLLSDWLSNKFESVQLETAKLITSFATRNSRLVAPELYAAAISALQSLLTVPRVSSRFAALRILNRISMVSPEKIVVCNPELESLINDSNRNISTYAITTLLKTGTSKNISSLISTITNFIHDVSDDFKIIIIDAVRTLSLNFPQEWKSILNFLIDVLKNSEGGFKFKNSIVEALIDIVSFVPQSKELALENLCDFIEDCEFNEILVRILHLLGKEGPSAPNPSLYVRHIYNRVVLENSIIRSAAVVALSKFALTKNDPTLYESIISLLKRIANDKDDEVRDRATIALEFIDSARNKDDVIAQNLIESKYFYDIPSLESKLSSYISSNTDSFATAFDVNQVRKFTEDEMKAINLKRKQEQIFNQKSETTLDTTPEAESVPEKRADANSFAGPNLDDHQEDLLATKYADELLSIEQIKPFGQLVNSSRAISLTEPEAEFVVRGVKHLFKDNVVLQFNITNTLTDIALDNVSVVCTPEISDEAELEELFTLQVDRLLPSEEAACYVAFKKLDEIVMEGFLNNLTFTTKEINPDTNEPFDGDEGFQDEYEIDSIFLNAGDYVKSSFTGNFSATFDELPCEEVAVFNIQEDLSIQEVVDKIILNSSCLPVESTQFAPSDSNSHTLKLFGKSALTGSKVALQIKMIKSSKGLALKVHGKGEDSLLCSDLVNGLMQ	1.751	–	Ratio (Deletedscore / WTscore) (bait ABP1): 1.101
YJL020C_1 (protein, UniProt P47068 1-1157, looked up) Myosin tail …: MSEPEVPFKVVAQFPYKSDYEDDLNFEKDQEIIVTSVEDAEWYFGEYQDSNGDVIEGIFPKSFVAVQGSEVGKEAESSPNTGSTEQRTIQPEVEQKDLPEPISPETKKETLSGPVPVPAATVPVPAATVPVPAATAVSAQVQHDSSSGNGERKVPMDSPKLKARLSMFNQDITEQVPLPKSTHLDLENIPVKKTIVADAPKYYVPPGIPTNDTSNLERKKSLKENEKKIVPEPINRAQVESGRIETENDQLKKDLPQMSLKERIALLQEQQRLQAAREEELLRKKAKLEQEHERSAVNKNEPYTETEEAEENEKTEPKPEFTPETEHNEEPQMELLAHKEITKTSREADEGTNDIEKEQFLDEYTKENQKVEESQADEARGENVAEESEIGYGHEDREGDNDEEKEEEDSEENRRAALRERMAKLSGASRFGAPVGFNPFGMASGVGNKPSEEPKKKQHKEKEEEEPEQLQELPRAIPVMPFVDPSSNPFFRKSNLSEKNQPTETKTLDPHATTEHEQKQEHGTHAYHNLAAVDNAHPEYSDHDSDEDTDDHEFEDANDGLRKHSMVEQAFQIGNNESENVNSGEKIYPQEPPISHRTAEVSHDIENSSQNTTGNVLPVSSPQTRVARNGSINSLTKSISGENRRKSINEYHDTVSTNSSALTETAQDISMAAPAAPVLSKVSHPEDKVPPHPVPSAPSAPPVPSAPSVPSAPPVPPAPPALSAPSVPPVPPVPPVSSAPPALSAPSIPPVPPTPPAPPAPPAPLALPKHNEVEEHVKSSAPLPPVSEEYHPMPNTAPPLPRAPPVPPATFEFDSEPTATHSHTAPSPPPHQNVTASTPSMMSTQQRVPTSVLSGAEKESRTLPPHVPSLTNRPVDSFHESDTTPKVASIRRSTTHDVGEISNNVKIEFNAQERWWINKSAPPAISNLKLNFLMEIDDHFISKRLHQKWVVRDFYFLFENYSQLRFSLTFNSTSPEKTVTTLQERFPSPVETQSARILDEYAQRFNAKVVEKSHSLINSHIGAKNFVSQIVSEFKDEVIQPIGARTFGATILSYKPEEGIEQLMKSLQKIKPGDILVIRKAKFEAHKKIGKNEIINVGMDSAAPYSSVVTDYDFTKNKFRVIENHEGKIIQNSYKLSHMKSGKLKVFRIVARGYVGW	–	0.4075	Ratio (Deletedscore / WTscore) (bait MYO5): 0.4895
YOL100W_1 (protein, UniProt Q12236 1-1081, looked up) Serine/threonine-protein …: MYFDKDNSMSPRPLLPSDEQKLNINLLTKKEKFSHLDPHYDAKATPQRSTSNRNVGDLLLEKRTAKPMIQKALTNTDNFIEMYHNQQRKNLDDDTIKEVMINDENGKTVASTNDGRYDNDYDNNDINDQKTLDNIAGSPHMEKNRNKVKIEHDSSSQKPIAKESSKAQKNIIKKGIKDFKFGSVIGDGAYSTVMLATSIDTKKRYAAKVLNKEYLIRQKKVKYVSIEKTALQKLNNSPSVVRLFSTFQDESSLYFLLEYAPNGDFLSLMKKYGSLDETCARYYAAQIIDAIDYLHSNGIIHRDIKPENILLDGEMKIKLTDFGTAKLLNPTNNSVSKPEYDLSTRSKSFVGTAEYVSPELLNDSFTDYRCDIWAFGCILFQMIAGKPPFKATNEYLTFQKVMKVQYAFTPGFPLIIRDLVKKILVKNLDRRLTISQIKEHHFFKDLNFKDGSVWSKTPPEIKPYKINAKSMQAMPSGSDRKLVKKSVNTLGKSHLVTQRSASSPSVEETTHSTLYNNNTHASTESEISIKKRPTDERTAQILENARKGINNRKNQPGKRTPSGAASAALAASAALTKKTMQSYPTSSSKSSRSSSPATTSRPGTYKRTSSTESKPFAKSPPLSASVLSSKVPMPPYTPPMSPPMTPYDTYQMTPPYTTKQQDYSDTAIAAPKPCISKQNVKNSTDSPLMNKQDIQWSFYLKNINEHVLRTEKLDFVTTNYDILEKKMLKLNGSLLDPQLFGKPRHTFLSQVARSGGEVTGFRNDPTMTAYSKTEDTYYSKNIIDLQLLEDDYRIEGGDLSELLTNRSGEGYKCNQNSSPMKDDDKSESNNKGSSVFSGKIKKLFHPTSAAETLSSSDEKTKYYKRTIVMTSFGRFLVFAKRRQPNPVTNLKYELEYDINLRQQGTKIKELIIPLEMGTNHIVVIQTPYKSFLLSTDKKTTSKLFTVLKKILNSNTNKIEKELLQRNQKVIERRTSSSGRAIPKDLPTSKSPSPKPRTHSQSPSISKHNSFSESINSAKSNRSSRIFETFINAKEQNSKKHAAPVPLTSKLVNGLPKRQVTVGLGLNTGTNFKNSSAKSKRS	–	0.53	–
YJL095W_1 (protein, UniProt Q01389 1-1478, looked up) Serine/threonine-protein …: MPFLRKIAGTAHTHSRSDSNSSVKFGHQPTSSVASTKSSSKSPRATSRKSIYDDIRSQFPNLTPNSTSSQFYESTPVIEQSFNWTTDDHISAGTLENPTSFTNSSYKNDNGPSSLSDSRKSSGGNSVNSLSFDKLILSWDPTDPDEWTMHRVTSWFKFHDFPESWILFFKKHQLFGHRFIKLLAYDNFAVYEKYLPQTKTASYTRFQQLLKKTMTKNVTNSHIRQKSASKLKSSRSSSESIKSKLKNSKSQEDISNSRSTSESALSPTKSGPSKTDEKNFLHSTSTHQKTKSASSLYRRSFISLRGSSSSNASSAKSPSNIKLSIPARPHSIIESNSTLTKSASPPASPSYPSIFRRHHKSSSSESSLLNSLFGSGIGEEAPTKPNPQGHSLSSENLAKGKSKHYETNVSSPLKQSSLPTSDDKGNLWNKFKRKSQIGVPSPNTVAYVTSQETPSLKSNSSTATLTVQTADVNIPSPSSSPPPIPKTANRSLEVISTEDTPKISSTTASFKETYPDCINPDKTVPVPVNNQKYSVKNFLLDQKFYPLKKTGLNDSENKYILVTKDNVSFVPLNLKSVAKLSSFKESALTKLGINHKNVTFHMTDFDCDIGAAIPDDTLEFLKKSLFLNTSGKIYIKDQMKLQQKPKPAPLTSENNVPLKSVKSKSSMRSGTSSLIASTDDVSIVTSSSDITSFDEHASGSGRRYPQTPSYYYDRVSNTNPTEELNYWNIKEVLSHEENAPKMVFKTSPKLELNLPDKGSKLNIPTPITENESKSSFQVLRKDEGTEIDFNHRRESPYTKPELAPKREAPKPPANTSPQRTLSTSKQNKPIRLVRASTKISRSKRSKPLPPQLLSSPIEASSSSPDSLTSSYTPASTHVLIPQPYKGANDVMRRLKTDQDSTSTSPSLKMKQKVNRSNSTVSTSNSIFYSPSPLLKRGNSKRVVSSTSAADIFEENDITFADAPPMFDSDDSDDDSSSSDDIIWSKKKTAPETNNENKKDEKSDNSSTHSDEIFYDSQTQDKMERKMTFRPSPEVVYQNLEKFFPRANLDKPITEGIASPTSPKSLDSLLSPKNVASSRTEPSTPSRPVPPDSSYEFIQDGLNGKNKPLNQAKTPKRTKTIRTIAHEASLARKNSVKLKRQNTKMWGTRMVEVTENHMVSINKAKNSKGEYKEFAWMKGEMIGKGSFGAVYLCLNVTTGEMMAVKQVEVPKYSSQNEAILSTVEALRSEVSTLKDLDHLNIVQYLGFENKNNIYSLFLEYVAGGSVGSLIRMYGRFDEPLIKHLTTQVLKGLAYLHSKGILHRDMKADNLLLDQDGICKISDFGISRKSKDIYSNSDMTMRGTVFWMAPEMVDTKQGYSAKVDIWSLGCIVLEMFAGKRPWSNLEVVAAMFKIGKSKSAPPIPEDTLPLISQIGRNFLDACFEINPEKRPTANELLSHPFSEVNETFNFKSTRLAKFIKSNDKLNSSKLRITSQENKTE	–	–	Ratio (Deletedscore / WTscore) (bait NBP2): 0.6492
